The values that follow come from patent US7662384B2, “Use of anti-α5β1 antibodies to inhibit cancer cell proliferation” (Facet Biotech Corporation, priority 2004, dated 2010).

In data set [1] the test system is refractory solid tumors. The experiment in a line: Phase I dose-escalation study: tumor response (RECIST). Format: in vivo, human. Also on record: key to Response outcome: Complete Response (CR): Disappearance of all target lesions confirmed by repeat imaging 25 to 28 days after CR first documented.; Partial Response (PR): At least a 30% decrease in the sum of LD of target lesions, taking as reference the baseline sum LD; Stable Disease (SD): Neither sufficient shrinkage to qualify for PR nor sufficient increase to qualify for PD, taking as references the smallest sum LD.; Progressive Disease (PD): At least a 20% increase in the sum of LD of target lesions, taking as reference the smallest sum LD recorded since treatment started, or the appearance of one or more new lesions. How it is done:
A two-part Phase I open-label study was carried to determine the effects of treatment with up to 6 dose levels, from 0.5 mg/kg to 15.0 mg/kg of M200 (volociximab) in 21 human patients with a variety of refractory solid tumor types. The total duration of treatment for the first part was 6 weeks with physical assessments through 45 days after the last dose.
The dosing levels and schedule used in the study were as follows. M200 was administered to the 21 patients on days 1, 15, 22, 29, and 36. The dosing levels and numbers of patients per level were: 0.5 mg/kg (1 patient), 1.0 mg/kg (2 patient), 2.5 mg/kg (3 patients), 5.0 mg/kg (3 patients), 10.0 mg/kg (6 patients) and 15 mg/kg (6 patients). The dose was administered as an intravenous infusion over 1 hour. The first and second doses were separated by a two week period to allow sampling for single-dose pharmacokinetic data. The real-time PK measurements performed following the first dose were used to predict each patient's peak serum concentration following the fifth dose. If the predicted peak serum concentration following the fifth dose was <750 μg/mL, the patient received all 5 doses of M200. The remaining 3 doses were given weekly and followed by a 45-day evaluation period.
Patient evaluations during the study included the following: • a. Screening (within 14 days of study entry) of: medical history and physical examination, ECOG performance status, routine chemistry panel, complete blood count (CBC) with differential and platelets, sensitive C-reactive protein (CRP), urinalysis with microscopic analysis (UA/micro), electrocardiogram (ECG), chest radiograph (CXR), disease-directed body CT or MRI, urine pregnancy test within 48 hours prior to dosing, and coagulation studies (prothrombin [PT] and partial thromboplastin time [PTT]), anti-M200 antibodies (i.e., to detect cross-reactive HAMA or HACA) for patients who previously received murine or chimeric antibodies, head CT for patients with tumors that commonly metastasize to brain or CNS, and, in some patients, a biopsy to evaluate tumor vessel vascularity. • b. On-study laboratory evaluations: routine chemistry panel, urate, serum amylase, CBC with differential and platelets, UA/micro. • c. Routine disease-directed radiographic imaging (e.g., CT scanning) before and after treatment with M200 was used to evaluate tumor response using uni-dimensional, RECIST criteria. Target lesions were selected on the basis of their size (lesions with the longest diameter (LD)) and their suitability for accurate repetitive measurements (either by imaging techniques or clinically). A sum of the LD for all target lesions was calculated and reported as the baseline sum LD. The baseline sum LD was used as reference by which to characterize the objective tumor response. The following response criteria for the target lesions was used to assess the best overall response. • Complete Response (CR): Disappearance of all target lesions confirmed by repeat imaging 25 to 28 days after CR first documented. • Partial Response (PR): At least a 30% decrease in the sum of LD of target lesions, taking as reference the baseline sum LD, confirmed by repeat imaging 25 to 28 days after PR first documented. • Stable Disease (SD): Neither sufficient shrinkage to qualify for PR nor sufficient increase to qualify for PD, taking as references the smallest sum LD. • Progressive Disease (PD): At least a 20% increase in the sum of LD of target lesions, taking as reference the smallest sum LD recorded since treatment started, or the appearance of one or more new lesions. • d. Blood drawn for serum PK measurements, immunogenicity assays (anti-M200 antibodies), vascular growth factors, and measurement of bound and unbound α5β1 on peripheral blood monocytes. • e. A 3-mm punch biopsy of superficial tumor metastasis was obtained and frozen after the last treatment with M200 from patients who consented (not required for enrollment) to the procedure. […]

Data set [2] in a line: minimum effective in vitro concentration.
Data set [3] in a line: Phase I dose-escalation study: immunogenicity (double-antigen bridging ELISA). Format: in vivo, human. The procedure: Immunogenicity of M200 was determined by a double-antigen bridging ELISA assay. Serum samples for anti-M200 antibodies were obtained from patients before treatment, prior to the second dose, and at study exit, 45 days after the last dose of M200. In addition, serum for anti-M200 antibodies was drawn if the interval between doses was […]. Samples were stored and evaluated at the end of the study. Samples that tested positive for antibodies to M200 were re-assayed for neutralizing antibodies to M200. Patients with known exposure to murine or chimeric monoclonal antibodies were screened for the presence of anti-M200 antibodies prior to receiving the first dose of M200.
(In an ELISA, binding on a coated surface is turned into a signal by an enzyme label.)

In data set [4] the target is T1, α5β1 sites on monocytes (Homo sapiens, UniProt P05556+P08648).
T1 construct: endogenous in cells; host or cells: CD14+ monocytes in peripheral blood of human patients
T1 sequence (P08648 42-894 limits assumed): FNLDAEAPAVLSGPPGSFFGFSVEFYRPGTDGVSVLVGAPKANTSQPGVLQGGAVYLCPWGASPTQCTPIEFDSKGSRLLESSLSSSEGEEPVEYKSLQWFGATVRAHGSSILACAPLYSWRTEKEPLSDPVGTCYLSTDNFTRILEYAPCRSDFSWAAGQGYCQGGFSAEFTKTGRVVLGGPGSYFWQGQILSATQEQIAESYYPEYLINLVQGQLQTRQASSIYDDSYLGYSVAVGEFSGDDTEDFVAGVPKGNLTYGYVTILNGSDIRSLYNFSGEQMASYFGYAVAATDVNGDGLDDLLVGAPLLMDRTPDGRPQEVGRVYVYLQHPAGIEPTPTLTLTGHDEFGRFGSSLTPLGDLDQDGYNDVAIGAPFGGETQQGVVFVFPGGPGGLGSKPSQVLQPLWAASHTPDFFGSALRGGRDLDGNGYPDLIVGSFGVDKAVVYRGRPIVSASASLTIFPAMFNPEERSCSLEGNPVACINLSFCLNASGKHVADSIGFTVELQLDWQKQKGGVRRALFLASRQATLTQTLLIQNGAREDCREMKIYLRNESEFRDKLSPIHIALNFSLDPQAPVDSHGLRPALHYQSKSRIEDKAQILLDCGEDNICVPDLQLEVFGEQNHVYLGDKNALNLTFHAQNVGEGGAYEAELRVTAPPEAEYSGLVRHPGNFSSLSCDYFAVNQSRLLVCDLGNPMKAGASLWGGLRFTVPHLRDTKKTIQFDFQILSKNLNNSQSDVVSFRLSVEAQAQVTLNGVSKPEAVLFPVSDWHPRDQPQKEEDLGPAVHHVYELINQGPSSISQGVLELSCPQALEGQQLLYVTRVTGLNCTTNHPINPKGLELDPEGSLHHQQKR
T1 sequence (P08648 895-1049 limits assumed): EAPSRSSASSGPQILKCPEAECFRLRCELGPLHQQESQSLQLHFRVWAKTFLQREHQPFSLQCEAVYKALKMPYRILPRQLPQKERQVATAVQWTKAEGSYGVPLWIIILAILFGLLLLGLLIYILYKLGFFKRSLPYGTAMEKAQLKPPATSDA
T1 sequence (P05556 21-798): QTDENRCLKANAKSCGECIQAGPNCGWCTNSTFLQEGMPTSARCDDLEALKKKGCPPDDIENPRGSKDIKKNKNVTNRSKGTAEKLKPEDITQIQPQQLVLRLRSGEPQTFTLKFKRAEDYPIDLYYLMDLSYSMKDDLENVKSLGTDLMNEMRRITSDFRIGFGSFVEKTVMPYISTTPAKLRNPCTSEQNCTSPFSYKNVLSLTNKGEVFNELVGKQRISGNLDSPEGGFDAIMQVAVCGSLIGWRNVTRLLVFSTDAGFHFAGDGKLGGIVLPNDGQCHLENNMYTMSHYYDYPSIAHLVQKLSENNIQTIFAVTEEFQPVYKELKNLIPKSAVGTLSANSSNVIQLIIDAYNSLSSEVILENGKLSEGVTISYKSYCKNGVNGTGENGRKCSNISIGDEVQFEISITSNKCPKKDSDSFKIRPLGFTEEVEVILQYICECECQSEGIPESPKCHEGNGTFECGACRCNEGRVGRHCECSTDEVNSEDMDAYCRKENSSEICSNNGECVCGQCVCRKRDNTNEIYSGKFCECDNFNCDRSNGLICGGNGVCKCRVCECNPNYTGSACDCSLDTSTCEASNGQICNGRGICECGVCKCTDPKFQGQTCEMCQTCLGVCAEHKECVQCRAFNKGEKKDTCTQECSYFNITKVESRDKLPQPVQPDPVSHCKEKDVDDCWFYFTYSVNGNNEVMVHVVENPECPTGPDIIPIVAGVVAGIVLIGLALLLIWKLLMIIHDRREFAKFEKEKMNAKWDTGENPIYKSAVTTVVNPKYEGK
In words: Phase I study: saturation of α5β1 sites on monocytes by flow cytometry. Format: in vivo. The conditions noted are these: 10 mg/kg dosage. The procedure: The integrin α5β1 is also expressed on monocytes in the peripheral blood. To determine the dose at which the α5β1 sites on these circulating cells is saturated by M200, samples of peripheral blood were taken before the first dose on Study Day 1, Study Days 2 and 8, just before each subsequent dose, and on Study Day 43. The saturation of α5β1 sites on monocytes was determined by flow cytometry. The monocytes were identified by using antibodies to CD14. Bound M200 on the monocyte surface was detected by adding labeled anti-human IgG4. Unoccupied (free) α5β1 on the cells was detected by adding labeled IIA1. The percentages of monocytes and lymphocytes expressing α5β1 was also assessed.
A general note: A flow cytometer gives signals particle by particle.

B1: M200: chimeric IgG4 anti-α5β1 antibody derived from IIA1; generic name volociximab (antibody, V domains shown)
VH: MAVLGLLLCLVTFPSCVLSQVQLKESGPGLVAPSQSLSITCTISGFSLTDYGVHWVRQPPGKGLEWLVVIWSDGSSTYNSALKSRMTIRKDNSKSQVFLIMNSLQTDDSAMYYCARHGTYYGMTTTGDALDYWGQGTSVTVSS
VL: MDFQVQIFSFLLISASVIMSRGQIVLTQSPAIMSASLGERVTMTCTASSSVSSNYLHWYQQKPGSAPNLWIYSTSNLASGVPARFSGSGSGTSYSLTISSMEAEDAATYYCHQYLRSPPTFGGGTKLEIKDMSVDMSV
modifications: chimeric antibody
notes: chimeric IgG4 anti-α5β1 antibody derived from IIA1; generic name volociximab
Take B1: the Response outcome in data set [1] (0.5 mg/kg, CRC patient) was “(PD) (Progressive Disease (PD): At least a 20% increase in the sum of LD of target lesions, taking as reference the smallest sum LD recorded since treatment started, or the appearance of one or more new lesions.)”; in data set [1] (1.0 mg/kg, HCC patient), “(SD)”; in data set [1] (1.0 mg/kg, PC patient), “(SD)”; in data set [1] (2.5 mg/kg, CRC patient), “(PD) (Progressive Disease (PD): At least a 20% increase in the sum of LD of target lesions, taking as reference the smallest sum LD recorded since treatment started, or the appearance of one or more new lesions.)”; in data set [1] (2.5 mg/kg, MEL Ocular patient), “(PD) (Progressive Disease (PD): At least a 20% increase in the sum of LD of target lesions, taking as reference the smallest sum LD recorded since treatment started, or the appearance of one or more new lesions.)”; in data set [1] (2.5 mg/kg, NSCLC patient), “(SD)”. Moreover, the Response outcome in data set [1] (5.0 mg/kg, EC patient) is “(PD) (Progressive Disease (PD): At least a 20% increase in the sum of LD of target lesions, taking as reference the smallest sum LD recorded since treatment started, or the appearance of one or more new lesions.)”; in data set [1] (5.0 mg/kg, HCC patient), “(SD)”; in data set [1] (5.0 mg/kg, THY patient), “(PD) (Progressive Disease (PD): At least a 20% increase in the sum of LD of target lesions, taking as reference the smallest sum LD recorded since treatment started, or the appearance of one or more new lesions.)”; in data set [1] (10.0 mg/kg, BC patient), “(SD)”; in data set [1] (10.0 mg/kg, CRC patient (two patients)) it was “(SD)”; in data set [1] (10.0 mg/kg, MEL patient), “(PD) (Progressive Disease (PD): At least a 20% increase in the sum of LD of target lesions, taking as reference the smallest sum LD recorded since treatment started, or the appearance of one or more new lesions.)”. For the same molecule, the Response outcome in data set [1] (10.0 mg/kg, PARO patient) is “(SD)”; in data set [1] (10.0 mg/kg, RCC patient), “(SD)”; in data set [1] (15.0 mg/kg, EC patient), “(PD) (Progressive Disease (PD): At least a 20% increase in the sum of LD of target lesions, taking as reference the smallest sum LD recorded since treatment started, or the appearance of one or more new lesions.)”; in data set [1] (15.0 mg/kg, PRO patient) it was “(PD) (Progressive Disease (PD): At least a 20% increase in the sum of LD of target lesions, taking as reference the smallest sum LD recorded since treatment started, or the appearance of one or more new lesions.)”. For the same molecule, the “overall response outcome: progressive disease (PD)” value in data set [1] (21 treated patients, 0.5-15 mg/kg) was determined as 10 patients. The “minimum effective in vitro concentration” value in data set [2] lay within 2 to 3 µg/mL. Also, the “patients tested positive for anti-M200 antibodies” value in data set [3] (0.5 mg/kg and 1.0 mg/kg dose levels) is “Three”. Besides, the “patients tested positive for anti-M200” value in data set [3] (higher dose cohorts) is listed as “No patients”. In data set [4], the monocyte saturation entry is listed as “monocyte saturation”.
